Experimental data from article PMC5825165, “EAT1 transcription factor, a non-cell-autonomous regulator of pollen production, activates meiotic small RNA biogenesis in rice anther tapetum” (PLoS Genetics, 2018).

T1: UDT1-nYFP (UNDEVELOPED TAPETUM1 fused with the N-terminal split of YFP) (rice (japonica cv. Nipponbare), UniProt B9FXT3 1-234)
T1 sequence (looked up): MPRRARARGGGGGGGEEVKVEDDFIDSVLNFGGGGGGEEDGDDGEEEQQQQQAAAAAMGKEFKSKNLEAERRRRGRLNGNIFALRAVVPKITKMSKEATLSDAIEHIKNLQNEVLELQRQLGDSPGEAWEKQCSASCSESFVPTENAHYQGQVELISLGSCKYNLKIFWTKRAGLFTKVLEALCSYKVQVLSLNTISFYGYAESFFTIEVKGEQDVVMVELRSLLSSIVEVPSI

B1: TIP2-cYFP (TDR INTERACTING PROTEIN2 fused with the C-terminal split of YFP) (natural protein, rice (japonica cv. Nipponbare), UniProt Q5JNS0 1-379, looked up)
chain: MYHPQCELLMPLESLEMDVGQSHLAAAVAAAMPGELNFHLLHSLDAAAAAASSTAASASSQPTVDYFFGGADQQPPPPAAMQYDQLAAPHHHQTVAMLRDYYGGHYPPAAAAAAATEAYFRGGPRTAGSSSLVFGPADDESAFMVGPFESSPTPRSGGGRKRSRATAGFHGGGPANGVEKKEKQRRLRLTEKYNALMLLIPNRTKEDRATVISDAIEYIQELGRTVEELTLLVEKKRRRREMQGDVVDAATSSVVAGMDQAAESSEGEVMAAAAMGAVAPPPRQAPIRSTYIQRRSKETFVDVRIVEDDVNIKLTKRRRDGCLAAASRALDDLRLDLVHLSGGKIGDCHIYMFNTKIHSGSPVFASAVASRLIEVVDEY
B2: EAT1-cYFP (ETERNAL TAPETUM1 fused with the C-terminal split of YFP) (natural protein, rice (japonica cv. Nipponbare), UniProt Q7X8R0 1-464, looked up)
chain: MIVGAGYFEDSHDQSLMAGSLIHDSNQAPASSENTSIDLQKFKVHPYSTEALSNTANLAEAARAINHLQHQLEIDLEQEVPPVETANWDPAICTIPDHIINHQFSEDPQNILVEQQIQQYDSALYPNGVYTPAPDLLNLMQCTMAPAFPATTSVFGDTTLNGTNYLDLNGELTGVAAVPDSGSGLMFASDSALQLGYHGTQSHLIKDICHSLPQNYGLFPSEDERDVIIGVGSGDLFQEIDDRQFDSVLECRRGKGEFGKGKGKANFATERERREQLNVKFRTLRMLFPNPTKNDRASIVGDAIEYIDELNRTVKELKILVEQKRHGNNRRKVLKLDQEAAADGESSSMRPVRDDQDNQLHGAIRSSWVQRRSKECHVDVRIVDDEVNIKLTEKKKANSLLHAAKVLDEFQLELIHVVGGIIGDHHIFMFNTKVSEGSAVYACAVAKKLLQAVDVQHQALDIFN

Target: T1, UDT1-nYFP (UNDEVELOPED TAPETUM1 fused …)
Assay: cell-based or functional assay

Binder	transient expression assay in rice protoplasts: firefly Luciferase activity of the 24-PHAS chr5-20 promoter on TIP2-UDT1 cotransfection (untagged effectors) [fold]	transient expression assay in rice protoplasts: firefly Luciferase activity of the 24-PHAS chr6-97 promoter on TIP2-UDT1 cotransfection (untagged effectors) [fold]	transient expression assay in rice protoplasts: firefly Luciferase activity of the DCL5 promoter (pDCL5) on TIP2-UDT1 cotransfection (untagged effectors) [fold]	transient expression assay in rice protoplasts: firefly Luciferase activity of the EAT1 promoter (pEAT1) on TIP2-UDT1 cotransfection (untagged effectors) [fold]	transient expression assay in rice protoplasts: firefly Luciferase activity of the 24-PHAS chr5-20 promoter on EAT1-UDT1 cotransfection (untagged effectors), fold against the no effector control [fold]	transient expression assay in rice protoplasts: firefly Luciferase activity of the 24-PHAS chr6-97 promoter on EAT1-UDT1 cotransfection (untagged effectors), fold against the no effector control [fold]	transient expression assay in rice protoplasts: firefly Luciferase activity of the EAT1 promoter (pEAT1) on EAT1-UDT1 cotransfection (untagged effectors) [fold]
B1	8.63	2.73	4.91	5.72	–	–	–
B2	–	–	–	–	4.46	3.99	7.61
